Starred links: 1 amine or outer side, 2 acyl side, 3 side chain; linkers in the order of their positions; H or OH if unused. Non-standard residues stand in square brackets, D forms with d. Groups on a side chain read outwards from the residue. No end group written: not given here. *: point of attachment. β‑dimethylGln = β-dimethylglutamine, CC(C)(CC(N)=O)[C@H](N[*:1])C(=O)[*:2]; C20 diacid = O=C(O)CCCCCCCCCCCCCCCCCCC(=O)*; C18 diacid = O=C(O)CCCCCCCCCCCCCCCCC(=O)*; γGlu = O=C(O)[C@H](CCC(=O)[*:2])N[*:1]; αMeF = C[C@](N)(Cc1ccccc1)C(=O)O; NMeQ = CN[C@@H](CCC(N)=O)C(=O)O; AEEA = NCCOCCOCC(=O)O; Aib = CC(C)(N)C(=O)O
B1: Peptide 300 (peptide)
peptide: H[Aib]HGS[αMeF]TSDVSK[αMeF]LDSRAAK([AEEA-AEEA-γGlu-C18 diacid])D[αMeF]VQ[Aib]IAET-NH2
modifications: N-terminus assumed
SMILES: CC[C@H](C)[C@H](NC(=O)C(C)(C)NC(=O)[C@H](CCC(N)=O)NC(=O)[C@@H](NC(=O)[C@](C)(Cc1ccccc1)NC(=O)[C@H](CC(=O)O)NC(=O)[C@H](CCCCNC(=O)COCCOCCNC(=O)COCCOCCNC(=O)CC[C@H](NC(=O)CCCCCCCCCCCCCCCCC(=O)O)C(=O)O)NC(=O)[C@H](C)NC(=O)[C@H](C)NC(=O)[C@H](CCCNC(=N)N)NC(=O)[C@H](CO)NC(=O)[C@H](CC(=O)O)NC(=O)[C@H](CC(C)C)NC(=O)[C@](C)(Cc1ccccc1)NC(=O)[C@H](CCCCN)NC(=O)[C@H](CO)NC(=O)[C@@H](NC(=O)[C@H](CC(=O)O)NC(=O)[C@H](CO)NC(=O)[C@@H](NC(=O)[C@](C)(Cc1ccccc1)NC(=O)[C@H](CO)NC(=O)CNC(=O)[C@H](Cc1c[nH]cn1)NC(=O)C(C)(C)NC(=O)[C@@H](N)Cc1c[nH]cn1)[C@@H](C)O)C(C)C)C(C)C)C(=O)N[C@@H](C)C(=O)N[C@@H](CCC(=O)O)C(=O)N[C@H](C(N)=O)[C@@H](C)O
B2: Peptide 324 (peptide)
peptide: HS[β‑dimethylGln]GS[αMeF]TSDVSK[αMeF]LDSRAAK([AEEA-AEEA-γGlu-C18 diacid])D[αMeF]VQ[Aib]IANT-NH2
modifications: N-terminus assumed
SMILES: CC[C@H](C)[C@H](NC(=O)C(C)(C)NC(=O)[C@H](CCC(N)=O)NC(=O)[C@@H](NC(=O)[C@](C)(Cc1ccccc1)NC(=O)[C@H](CC(=O)O)NC(=O)[C@H](CCCCNC(=O)COCCOCCNC(=O)COCCOCCNC(=O)CC[C@H](NC(=O)CCCCCCCCCCCCCCCCC(=O)O)C(=O)O)NC(=O)[C@H](C)NC(=O)[C@H](C)NC(=O)[C@H](CCCNC(=N)N)NC(=O)[C@H](CO)NC(=O)[C@H](CC(=O)O)NC(=O)[C@H](CC(C)C)NC(=O)[C@](C)(Cc1ccccc1)NC(=O)[C@H](CCCCN)NC(=O)[C@H](CO)NC(=O)[C@@H](NC(=O)[C@H](CC(=O)O)NC(=O)[C@H](CO)NC(=O)[C@@H](NC(=O)[C@](C)(Cc1ccccc1)NC(=O)[C@H](CO)NC(=O)CNC(=O)[C@@H](NC(=O)[C@H](CO)NC(=O)[C@@H](N)Cc1c[nH]cn1)C(C)(C)CC(N)=O)[C@@H](C)O)C(C)C)C(C)C)C(=O)N[C@@H](C)C(=O)N[C@@H](CC(N)=O)C(=O)N[C@H](C(N)=O)[C@@H](C)O
B3: Peptide 305 (peptide)
peptide: H[Aib]HGS[αMeF]TSDVSK[αMeF]LDSRAAK([AEEA-AEEA-γGlu-γGlu-C20 diacid])D[αMeF]VQ[Aib]IANT-NH2
modifications: N-terminus assumed
SMILES: CC[C@H](C)[C@H](NC(=O)C(C)(C)NC(=O)[C@H](CCC(N)=O)NC(=O)[C@@H](NC(=O)[C@](C)(Cc1ccccc1)NC(=O)[C@H](CC(=O)O)NC(=O)[C@H](CCCCNC(=O)COCCOCCNC(=O)COCCOCCNC(=O)CC[C@H](NC(=O)CC[C@H](NC(=O)CCCCCCCCCCCCCCCCCCC(=O)O)C(=O)O)C(=O)O)NC(=O)[C@H](C)NC(=O)[C@H](C)NC(=O)[C@H](CCCNC(=N)N)NC(=O)[C@H](CO)NC(=O)[C@H](CC(=O)O)NC(=O)[C@H](CC(C)C)NC(=O)[C@](C)(Cc1ccccc1)NC(=O)[C@H](CCCCN)NC(=O)[C@H](CO)NC(=O)[C@@H](NC(=O)[C@H](CC(=O)O)NC(=O)[C@H](CO)NC(=O)[C@@H](NC(=O)[C@](C)(Cc1ccccc1)NC(=O)[C@H](CO)NC(=O)CNC(=O)[C@H](Cc1c[nH]cn1)NC(=O)C(C)(C)NC(=O)[C@@H](N)Cc1c[nH]cn1)[C@@H](C)O)C(C)C)C(C)C)C(=O)N[C@@H](C)C(=O)N[C@@H](CC(N)=O)C(=O)N[C@H](C(N)=O)[C@@H](C)O
B4: Peptide 339 (peptide)
peptide: H[Aib]QGTFTSDYSK[αMeF]LD[αMeF]RRAK([γGlu-C18 diacid])DFVQWLL[Aib]T-OH
modifications: N-terminus assumed
SMILES: CC(C)C[C@H](NC(=O)[C@H](Cc1c[nH]c2ccccc12)NC(=O)[C@H](CCC(N)=O)NC(=O)[C@@H](NC(=O)[C@H](Cc1ccccc1)NC(=O)[C@H](CC(=O)O)NC(=O)[C@H](CCCCNC(=O)CC[C@H](NC(=O)CCCCCCCCCCCCCCCCC(=O)O)C(=O)O)NC(=O)[C@H](C)NC(=O)[C@H](CCCNC(=N)N)NC(=O)[C@H](CCCNC(=N)N)NC(=O)[C@](C)(Cc1ccccc1)NC(=O)[C@H](CC(=O)O)NC(=O)[C@H](CC(C)C)NC(=O)[C@](C)(Cc1ccccc1)NC(=O)[C@H](CCCCN)NC(=O)[C@H](CO)NC(=O)[C@H](Cc1ccc(O)cc1)NC(=O)[C@H](CC(=O)O)NC(=O)[C@H](CO)NC(=O)[C@@H](NC(=O)[C@H](Cc1ccccc1)NC(=O)[C@@H](NC(=O)CNC(=O)[C@H](CCC(N)=O)NC(=O)C(C)(C)NC(=O)[C@@H](N)Cc1c[nH]cn1)[C@@H](C)O)[C@@H](C)O)C(C)C)C(=O)N[C@@H](CC(C)C)C(=O)NC(C)(C)C(=O)N[C@H](C(=O)O)[C@@H](C)O
B5: Peptide 340 (peptide)
peptide: H[Aib]QGTFTSDYSK[αMeF]LDSRRAK([γGlu-C18 diacid])DFVQWLL[Aib]E-OH
modifications: N-terminus assumed
SMILES: CC(C)C[C@H](NC(=O)[C@H](Cc1c[nH]c2ccccc12)NC(=O)[C@H](CCC(N)=O)NC(=O)[C@@H](NC(=O)[C@H](Cc1ccccc1)NC(=O)[C@H](CC(=O)O)NC(=O)[C@H](CCCCNC(=O)CC[C@H](NC(=O)CCCCCCCCCCCCCCCCC(=O)O)C(=O)O)NC(=O)[C@H](C)NC(=O)[C@H](CCCNC(=N)N)NC(=O)[C@H](CCCNC(=N)N)NC(=O)[C@H](CO)NC(=O)[C@H](CC(=O)O)NC(=O)[C@H](CC(C)C)NC(=O)[C@](C)(Cc1ccccc1)NC(=O)[C@H](CCCCN)NC(=O)[C@H](CO)NC(=O)[C@H](Cc1ccc(O)cc1)NC(=O)[C@H](CC(=O)O)NC(=O)[C@H](CO)NC(=O)[C@@H](NC(=O)[C@H](Cc1ccccc1)NC(=O)[C@@H](NC(=O)CNC(=O)[C@H](CCC(N)=O)NC(=O)C(C)(C)NC(=O)[C@@H](N)Cc1c[nH]cn1)[C@@H](C)O)[C@@H](C)O)C(C)C)C(=O)N[C@@H](CC(C)C)C(=O)NC(C)(C)C(=O)N[C@@H](CCC(=O)O)C(=O)O
B6: Peptide 325 (peptide)
peptide: HS[NMeQ]GS[αMeF]TSDVSK[αMeF]LDSRAAK([AEEA-AEEA-γGlu-C18 diacid])D[αMeF]VQ[Aib]IANT-NH2
modifications: N-terminus assumed
SMILES: CC[C@H](C)[C@H](NC(=O)C(C)(C)NC(=O)[C@H](CCC(N)=O)NC(=O)[C@@H](NC(=O)[C@](C)(Cc1ccccc1)NC(=O)[C@H](CC(=O)O)NC(=O)[C@H](CCCCNC(=O)COCCOCCNC(=O)COCCOCCNC(=O)CC[C@H](NC(=O)CCCCCCCCCCCCCCCCC(=O)O)C(=O)O)NC(=O)[C@H](C)NC(=O)[C@H](C)NC(=O)[C@H](CCCNC(=N)N)NC(=O)[C@H](CO)NC(=O)[C@H](CC(=O)O)NC(=O)[C@H](CC(C)C)NC(=O)[C@](C)(Cc1ccccc1)NC(=O)[C@H](CCCCN)NC(=O)[C@H](CO)NC(=O)[C@@H](NC(=O)[C@H](CC(=O)O)NC(=O)[C@H](CO)NC(=O)[C@@H](NC(=O)[C@](C)(Cc1ccccc1)NC(=O)[C@H](CO)NC(=O)CNC(=O)[C@H](CCC(N)=O)N(C)C(=O)[C@H](CO)NC(=O)[C@@H](N)Cc1c[nH]cn1)[C@@H](C)O)C(C)C)C(C)C)C(=O)N[C@@H](C)C(=O)N[C@@H](CC(N)=O)C(=O)N[C@H](C(N)=O)[C@@H](C)O

Assays:
[1] = biological target: human glucagon receptor (human, UniProt P47871); assay: cell-based or functional assay
[2] = biological target: human GLP-1 receptor (human, UniProt P43220); assay: cell-based or functional assay

Row | Binder | hGluc-R EC50 (pM) [1] [pM] | hGLP-1R EC50 (pM) [2] [pM]
1 | H[Aib]HGS[αMeF]TSDVSK[αMeF]LDSRAAK([AEEA-AEEA-γGlu-γGlu-C20 diacid])D[αMeF]IA[Aib]IAET-NH2 [Peptide 302] | 271 | 151
2 | B1 | 18.4 | 19.7
3 | H[Aib]QGS[αMeF]TSDVSK[αMeF]LDSRAAKD[αMeF]VQ[Aib]IANT-NH2 (not fully specified (residue 20)) [Peptide 322] | > 24700 | 68.3
4 | H[Aib]QGTFTSDVSK[αMeF]LDSRAAK([AEEA-AEEA-γGlu-C18 diacid])DFVQWIANT-NH2 (not fully specified) [Peptide 318] | 12000 | 55.2
5 | H[dS]QGS[αMeF]TSDVSK[αMeF]LDSRAAK([AEEA-AEEA-γGlu-C18 diacid])D[αMeF]VQ[Aib]IANT [Peptide 331] | 66.6 | 62.6
6 | B2 | 1930 | 1330
7 | B3 | 155 | 211
8 | H[Aib]HGS[αMeF]TSDVSK[αMeF]LDSRAAK([AEEA-AEEA-γGlu-γGlu-C20 diacid])D[αMeF]VQ[Aib]IANT-OH [Peptide 304] | 687 | 239
9 | B4 | 70.3 | 312
10 | H[Aib]QGTFTSDVSK[αMeF]LDSRAAK([AEEA-AEEA-γGlu-C18 diacid])DFVQ[Aib]LVAT-NH2 (not fully specified) [Peptide 315] | 5850 | 18.1
11 | B5 | 94.7 | 312
12 | B6 | > 25500 | 929
13 | H[Aib]QGT[αMeF]TSDVSK[αMeF]LDSRAAK([AEEA-AEEA-γGlu-C18 diacid])D[αMeF]VQ[Aib]IANT-NH2 (not fully specified) [Peptide 321] | 4400 | 22.6

— patent US12630600B2 (MEDIMMUNE LIMITED, priority 2022, dated 2026)
